Measured values as given in article PMC13539869, “Dpb11 facilitates the colocalization of Mec1-Ddc2 with its activators on gapped DNA” (Cell reports, 2026).
Each block holds one molecule with its values, some of them ahead of it.

How the values were obtained:
[1] = test system: Dpb11;RPA (Saccharomyces cerevisiae;Saccharomyces cerevisiae); test: single-molecule fluorescence (C-Trap kymographs); settings: 5' dual-biotin at both ends; Imaging: 25 mM Tris-HCl pH 7.5, 100 mM NaCl, 10 mM Mg acetate, 2 mM TCEP, 0.1 mM EDTA, 0.04 mg/mL BSA, 1% glycerol, oxygen scavengers; room temperature, no …
[2] = test system: Dpb11;Mec1;Ddc2;RPA (Saccharomyces cerevisiae;Saccharomyces cerevisiae;Saccharomyces cerevisiae;Saccharomyces cerevisiae); test: single-molecule fluorescence (C-Trap kymographs); settings: 5' dual-biotin at both ends; Imaging: 25 mM Tris-HCl pH 7.5, 100 mM NaCl, 10 mM Mg acetate, 2 mM TCEP, 0.1 mM EDTA, 0.04 mg/mL BSA, 1% glycerol, oxygen scavengers; room temperature, no …; scale: % of Mec1-Ddc2 binding events at gap junctions
[3] = molecular target: T1, Sc Dpb11 recombinant protein (unlabeled) (S. cerevisiae), P47027; test: mass photometry; 150 nM Dpb11, label-free, MP Buffer (25 mM Tris-HCl pH 7.5, 250 mM NaCl, 10 mM Mg(CH3COO)2, 2 mM TCEP, 0.1 mM EDTA, 4% glycerol); monomer and dimer; settings: remark: other sources report otherwise
T1 chain: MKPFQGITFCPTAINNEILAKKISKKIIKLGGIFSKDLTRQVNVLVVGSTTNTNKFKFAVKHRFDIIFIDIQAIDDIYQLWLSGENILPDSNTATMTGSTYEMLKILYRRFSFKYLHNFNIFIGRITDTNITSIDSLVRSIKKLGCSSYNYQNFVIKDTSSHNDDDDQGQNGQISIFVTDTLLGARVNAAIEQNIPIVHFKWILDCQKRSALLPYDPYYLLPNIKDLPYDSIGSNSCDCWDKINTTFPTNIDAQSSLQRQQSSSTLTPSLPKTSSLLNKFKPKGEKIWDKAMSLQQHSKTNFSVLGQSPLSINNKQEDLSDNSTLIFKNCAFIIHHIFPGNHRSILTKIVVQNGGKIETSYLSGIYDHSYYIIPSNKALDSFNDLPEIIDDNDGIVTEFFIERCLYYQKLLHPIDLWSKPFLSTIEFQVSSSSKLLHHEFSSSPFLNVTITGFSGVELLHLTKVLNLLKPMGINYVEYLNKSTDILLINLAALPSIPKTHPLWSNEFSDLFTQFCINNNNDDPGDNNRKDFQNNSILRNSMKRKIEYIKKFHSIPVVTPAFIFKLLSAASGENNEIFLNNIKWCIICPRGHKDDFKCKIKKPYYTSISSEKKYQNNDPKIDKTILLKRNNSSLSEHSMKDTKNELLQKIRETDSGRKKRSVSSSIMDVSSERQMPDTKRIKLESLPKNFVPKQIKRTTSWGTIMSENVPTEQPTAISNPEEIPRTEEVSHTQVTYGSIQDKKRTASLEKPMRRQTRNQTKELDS

[4] = molecular target: T1, Sc Dpb11 recombinant protein …; test: mass photometry; 50 nM Dpb11, label-free, MP Buffer (25 mM Tris-HCl pH 7.5, 250 mM NaCl, 10 mM Mg(CH3COO)2, 2 mM TCEP, 0.1 mM EDTA, 4% glycerol); monomer and dimer; settings: remark: other sources report otherwise
[5] = molecular target: T2, Mec1-Ddc2^LD555 (Mec1(b)-Ddc2 labeled with LD555) (S. cerevisiae, UniProt P38111 1-2368; Q04377 1-747, fluorophore LD555 (NHS ester) at the N-terminal amine of Mec1-Ddc2; which chain is not told | fluorophore LD555 (NHS ester) at the N-terminal amine of Mec1-Ddc2; which chain is not told); test: single-molecule fluorescence imaging (C-Trap, optical tweezers with confocal microscopy); 30 nM fluorescent Mec1-Ddc2, 200 nM unlabeled Dpb11 and 100 nM unlabeled RPA on 3 kb-gapped DNA; distribution of initial binding positions of Mec1-Ddc2; SM Buffer, room temperature, no flow; settings: both partners purified
T2 construct: Mec1, S. cerevisiae; gene synthesized by Biomatik; Ddc2, S. cerevisiae; gene by PCR from genomic DNA of strain S288C; also called fluorescent Mec1-Ddc2; Sc Mec1(b)-Ddc2 recombinant protein; copies: 2 + 2

[6] = molecular target: T3, Mec1-Ddc2^AF647 (Mec1(a)-Ddc2 labeled with Alexa Fluor 647) (S. cerevisiae, UniProt P38111 1-2368; Q04377 1-747, fluorophore AF647 (NHS ester) at the N-terminal amine of Mec1-Ddc2; which chain is not told | fluorophore AF647 (NHS ester) at the N-terminal amine of Mec1-Ddc2; which chain is not told); test: as above; settings: both partners purified
T3 construct: Mec1, S. cerevisiae; gene synthesized by Biomatik; Ddc2, S. cerevisiae; gene by PCR from genomic DNA of strain S288C; Only the Mec1(b) plasmid was deposited (Addgene 240737); Mec1(a) differs in the C-terminal tag region; also called Sc Mec1(a)-Ddc2 recombinant protein; copies: 2 + 2

[7] = molecular target: T2, Mec1-Ddc2^LD555 (Mec1(b)-Ddc2 labeled …); test: single-molecule fluorescence imaging, dual-color colocalization (C-Trap); 10 nM Mec1-Ddc2^LD555, 20 nM Dpb11^LD655, 180 nM unlabeled Dpb11 and 100 nM unlabeled RPA on 3 kb-gapped DNA; SM Buffer, room temperature, no flow; settings: both partners purified

Molecule: 3 kb-gapped 19 kb DNA
binding signal (% of binding events at gap junctions) [1]: 53 | binding signal [2]: 50

B1: Sc Dpb11 recombinant protein (unlabeled), P47027 1-764 (natural protein)
chain: T1 chain
percent of particles as dimer [3]: 98% | stoichiometry N [3]: 2 | percent of particles as dimer [4]: 64% | percent of particles as monomer [4]: 35% | stoichiometry N [4]: 2

Second part, the molecule after the results:

binding result [5]: binds | binding result [6]: binds
B2: Sc Dpb11 recombinant protein (unlabeled) (natural protein, S. cerevisiae, UniProt P47027 1-764, looked up)
chain: T1 chain
notes: Dpb11, S. cerevisiae strain S288C gene; Eluted from the beads with 3xFLAG peptide; no removal of the tag is described; By mass photometry a mixture of monomer and dimer; also called unlabeled Dpb11

binding result [7]: binds
B3: Dpb11^LD655 (natural protein, S. cerevisiae, UniProt P47027 1-764, looked up)
chain: T1 chain
modifications: fluorophore LD655 (NHS ester) at the N-terminal amine
notes: Dpb11, S. cerevisiae strain S288C gene; Same protein as m1, labeled; In the dual-color experiment 20 nM of it stood with 180 nM unlabeled Dpb11; also called fluorescent Dpb11; Dpb11 labeled with LD655; source: S. cerevisiae strain OY001, GAL1/10 overexpression, purified (FLAG-Ab beads), then labeled with LD655 NHS
